Experimental data as given in patent US20220033460A1, “IDENTIFICATION AND USE OF T CELL EPITOPES IN DESIGNING DIAGNOSTIC AND THERAPEUTIC APPROACHES FOR COVID-19” (priority 2020, published 2022).

Tests used:
DRB1*07:01 = DRB1*07:01 (Homo sapiens, UniProt P01903+P01911, A100R/A102G/A103Q/D57E/D86V/E43K/F76Y/K127E/L162R/M171V/P40G/Q125H/Q99D/R33Q/R42Y/R54Q/S133A/S66F/T210M/V115G/Y107V/Y59L/Y89S); format: cell-based; settings: for MCR2 construct expression (presentation): 12mer peptides in DRB1*07:01-MCR2
[1] = tested on: TCRs from the BAL of COVID-19 patients; format: cell-based, human

Row | Substance | peptide presentation by DRB1*07:01 (FACS staining, MEDi-MA scores) (DRB1*07:01; mutated versus WT peptides) | recognition by TCR007 (NFAT activation) [1] | MCR2 construct expression (presentation) (DRB1*07:01)
1 | S714-728 (T716I): Spike 15mer 714-728 with the T716I mutation of the B1.1.7 variant | presented as well as the WT | not recognized | 
2 | S714-725: Spike 12mer peptide cloned into DRB1*07:01-MCR2 |  | not | expressed well
3 | S714-725(T716I): Spike 12mer peptide with T716I cloned into DRB1*07:01-MCR2 |  |  | expressed well
